From article PMC6310132 (2016)

T1: Dopamine D1A D1A4 (Rattus norvegicus, UniProt P18901)
T1 chain: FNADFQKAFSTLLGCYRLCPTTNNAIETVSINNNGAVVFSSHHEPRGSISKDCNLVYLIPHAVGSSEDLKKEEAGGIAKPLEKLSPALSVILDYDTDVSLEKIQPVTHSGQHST

B1: snapin (protein)
chain: AAAGSAAVSGAGTPVAGPTGRDLFAEGLLEFLRPAVQQLDSHVHAVRESQVELREQIDNLATELCRINEDQKVALDLDPYVKKLLNARRRVVLVNNILQNAQERLRRLNHSVAKETARRRAMLDSGVYPPGSPSK

Assays:
[1] = biological target: B1; test: SPR
[2] = biological target: T1, Dopamine D1A D1A4; test: SPR

Row | Kd [1] [nM] | Kd [2] [nM] | Binder
1 | 23.4 |  | otoferlin C2F (protein) DMPAPGTPLDISPRKPKKYELRVIVWNTDEVVLEDDDFFTGEKSSDIFVRGWLKGQQEDKQDTDVHYHSLTGEGNFNWRYLFPFDYLAAEEKIVMSKKESMFSWDETEYKIPARLTLQIWDADHFSADDFLGAIELDLNRFPRGAKTAKQCT
2 |  | 14.6 | B1
